Article PMC12147174, “PEX1^G843D remains functional in peroxisome biogenesis but is rapidly degraded by the proteasome” (The Journal of Biological Chemistry, 2025)

Tests used:
[1] = target: T1, ScPex1^G700D (Pex1-FLAG G700D), Saccharomyces cerevisiae (Saccharomyces cerevisiae, UniProt P24004 1-1043, G700D); experiment: SEC; coexpressed complex purified by Ni-NTA and anti-FLAG resin, equal concentrations of FLAG eluate loaded on Superose 6 in GF buffer (50-60 mM Hepes pH 7.6, 50 mM NaCl, 50 mM KCl, 5% glycerol, 10 mM MgCl2, 1 mM ATP); fractions by SDS-PAGE and Coomassie; settings: both partners purified
T1 construct: Pex1, Saccharomyces cerevisiae, with G700D (homologous to human G843D); source: E. coli BL21, coexpressed with His-Pex6, purified (Ni-NTA, anti-FLAG M2 agarose, Superose 6)
T1 sequence (looked up): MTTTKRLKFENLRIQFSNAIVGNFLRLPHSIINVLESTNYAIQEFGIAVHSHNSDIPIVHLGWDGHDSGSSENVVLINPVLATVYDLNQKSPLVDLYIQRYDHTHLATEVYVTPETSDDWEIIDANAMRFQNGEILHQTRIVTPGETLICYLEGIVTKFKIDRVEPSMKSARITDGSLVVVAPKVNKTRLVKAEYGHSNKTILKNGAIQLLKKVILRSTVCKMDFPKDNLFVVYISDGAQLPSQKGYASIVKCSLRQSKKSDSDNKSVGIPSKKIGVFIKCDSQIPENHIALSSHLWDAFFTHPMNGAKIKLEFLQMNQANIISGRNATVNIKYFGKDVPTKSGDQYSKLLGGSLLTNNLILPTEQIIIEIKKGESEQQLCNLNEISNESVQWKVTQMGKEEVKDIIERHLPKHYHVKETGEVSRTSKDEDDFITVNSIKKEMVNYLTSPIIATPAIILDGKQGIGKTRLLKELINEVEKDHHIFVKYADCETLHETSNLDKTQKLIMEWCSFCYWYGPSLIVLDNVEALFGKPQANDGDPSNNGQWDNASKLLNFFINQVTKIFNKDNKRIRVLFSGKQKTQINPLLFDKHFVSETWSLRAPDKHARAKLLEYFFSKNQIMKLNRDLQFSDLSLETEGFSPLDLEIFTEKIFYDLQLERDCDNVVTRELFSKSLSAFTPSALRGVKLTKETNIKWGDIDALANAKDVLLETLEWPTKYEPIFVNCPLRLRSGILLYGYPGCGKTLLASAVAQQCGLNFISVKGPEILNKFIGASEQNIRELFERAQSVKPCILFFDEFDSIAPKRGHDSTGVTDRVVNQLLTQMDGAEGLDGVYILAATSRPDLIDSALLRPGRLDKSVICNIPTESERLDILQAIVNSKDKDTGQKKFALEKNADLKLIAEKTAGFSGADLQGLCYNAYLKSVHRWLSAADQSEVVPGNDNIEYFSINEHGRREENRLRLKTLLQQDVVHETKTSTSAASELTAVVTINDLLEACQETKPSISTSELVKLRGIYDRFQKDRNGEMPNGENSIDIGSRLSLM

[2] = target: T2, ScPex1^WT (Pex1-FLAG), Saccharomyces cerevisiae (Saccharomyces cerevisiae, UniProt P24004 1-1043); experiment: as above; settings: both partners purified
T2 construct: Pex1, Saccharomyces cerevisiae; Expressed from pETDuet; Forms a heterohexamer with Pex6; also called yeast Pex1; source: E. coli BL21, coexpressed with His-Pex6, purified (Ni-NTA, anti-FLAG M2 agarose, Superose 6)
T2 sequence (looked up): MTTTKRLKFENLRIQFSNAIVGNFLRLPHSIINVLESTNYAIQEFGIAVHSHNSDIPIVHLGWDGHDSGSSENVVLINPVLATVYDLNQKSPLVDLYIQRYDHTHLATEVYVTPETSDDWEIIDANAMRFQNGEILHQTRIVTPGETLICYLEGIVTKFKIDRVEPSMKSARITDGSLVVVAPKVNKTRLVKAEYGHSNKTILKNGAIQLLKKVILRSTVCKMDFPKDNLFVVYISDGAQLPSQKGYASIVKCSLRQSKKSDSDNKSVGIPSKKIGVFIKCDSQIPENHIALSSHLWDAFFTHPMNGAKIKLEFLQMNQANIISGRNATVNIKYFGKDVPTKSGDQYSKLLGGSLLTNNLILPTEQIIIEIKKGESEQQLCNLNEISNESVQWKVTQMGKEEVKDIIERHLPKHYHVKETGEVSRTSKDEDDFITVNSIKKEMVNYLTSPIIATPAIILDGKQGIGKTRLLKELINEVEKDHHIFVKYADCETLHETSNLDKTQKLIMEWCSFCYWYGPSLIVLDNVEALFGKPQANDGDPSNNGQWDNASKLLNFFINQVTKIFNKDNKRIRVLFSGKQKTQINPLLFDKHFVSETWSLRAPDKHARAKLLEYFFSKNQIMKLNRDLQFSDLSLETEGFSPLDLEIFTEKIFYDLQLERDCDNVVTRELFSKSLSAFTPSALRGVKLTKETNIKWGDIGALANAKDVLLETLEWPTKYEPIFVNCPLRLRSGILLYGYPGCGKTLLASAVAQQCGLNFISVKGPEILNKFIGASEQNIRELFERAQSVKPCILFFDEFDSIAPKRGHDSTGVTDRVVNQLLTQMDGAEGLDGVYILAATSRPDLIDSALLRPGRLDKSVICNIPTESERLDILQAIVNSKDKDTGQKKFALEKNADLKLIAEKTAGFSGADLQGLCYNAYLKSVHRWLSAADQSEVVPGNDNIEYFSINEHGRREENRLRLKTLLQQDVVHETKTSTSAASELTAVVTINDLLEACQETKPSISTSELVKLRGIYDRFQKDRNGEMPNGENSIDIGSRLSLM

B1: ScPex6 (His-Pex6), Saccharomyces cerevisiae (natural protein)
chain: MKASLTFSLSGIYAPCSISRDIYLEYGDKKAECLYGTIRLPQYGPGCTPGKIVHCVLDDSLPFCSIVVPSKLFGFMPTQPTMDFCYFEPILDNVVPVLDSVTFLINEQLYSKLMDLPQEMQQIQFLHYKYNINSMETVVHSRDILTSGLCQILNCSPFPQGLVDFTETQLILVNDTEQKLSALKYANEDEEYALPKIGTNSALSIDLESLPCTISRDLLRPAPHINDDNSIYAFTDAETLLRLDVTSGSFITVSNMGCVRLVKLFVLLLPNGFKKRTIYAPPKIIASFPDCSVVTISKSNIGHTDIPIANQVFISRVGGWLQSQKCFQNIILTTLKKFFSESKRILCQNDLIPIAFDSSMADLNIAEENDESDDEDELGQYYKNDSLVWFFVTSAELDCFSKDNSHFIIDPNRTKLITTNITNRRPLPLSRSNLQRYYGFAETFYYDLHIFPYVRQLVNILETSFNCSQRGITLNASVLLHSTTNNVGKATMVRFASKYLGIHLLEIDCLSLTSNSRQLDSTSKIIGYIRAKCENVLPYASPAVIFLAHLDSILLDVNANQDPEAIKLQKSINFEMSKLLDDFTFKFPGTTFVGSVNNIDNVPSSFRSHMRFEILVPVPSEAQRLRIFQWYLSSHELNRDVQQKVPVSYMDNISFSSLSSYSAGLTPLDIKSIVETARMTATARFYQESKKCGWLPQSILITQEDLSKATSKARNEFSVSIGAPQIPNVTWDDIGGIDFVKGEILDTIDMPLKHPELFTSGMKKRSGILFYGPPGTGKTLMAKAIATNFSLNFFSVKGPELLNMYIGESEANVRRVFQKAREAKPCVIFFDEIDSVAPKRGNQGDSGGVMDRIVSQLLAELDGMSTDADGVFVIGATNRPDLLDEALLRPGRFDKLLYLGIPDTDTKQLNILEALTRKFVLDNDVKLIELAKLCPFNYTGADFYALCSDAMLNAMSRIARMVEKKVSQHNELTGENISTRRWFDKIATKEDTKVVVKMEDFLKAQEQLTPSVSRAELNHYEAVRANFEGA
notes: Pex6, Saccharomyces cerevisiae; Expressed from pCOLADuet; source: E. coli BL21, coexpressed with Pex1-FLAG, purified (Ni-NTA, anti-FLAG M2 agarose, Superose 6)
binding result [1]: binds
binding result [2]: binds
